# Results taken from patent publication US8975044B2, “Polynucleotides encoding for frizzled-binding agents and uses thereof” (OncoMed Pharmaceuticals, Inc., priority 2008, dated 2015).
# B1: 18R5: human anti-FZD antibody; VH SEQ ID NO:10 (as 18R8), VL SEQ ID NO:14; binds FZD1, 2, 5, 7, 8 (antibody, V domains shown)
# VH: EVQLVESGGGLVQPGGSLRLSCAASGFTFSHYTLSWVRQAPGKGLEWVSVISGDGSYTYYADSVKGRFTISSDNSKNTLYLQMNSLRAEDTAVYYCARNFIKYVFANWGQGTLVTVSS
# VL: DIELTQPPSVSVAPGQTARISCSGDNIGSFYVHWYQQKPGQAPVLVIYDKSNRPSGIPERFSGSNSGNTATLTISGTQAEDEADYYCQSYANTLSLVFGGGTKLTVLG
# modifications: 18R5/18R8 heavy chain variable region (VH); 18R5 light chain variable region (VL)
# Legend:
# [1] = system: smooth muscle actin (SMA); test: Smooth Muscle Actin alpha immunofluorescence on treated OMP-PN4 tumors; assay type: in vivo, NOD/SCID mice; conditions: 10 mg/kg once a week for 6 weeks; vs control mAb
# Method: As described in Example 7 above, OMP-PN4 tumor-bearing NOD/SCID mice were treated with control Ab (LZ-1), 18R5, gemcitabine, or the combination of 18R5 and gemcitabine once a week for 6 weeks. The antibodies were administered at a concentration of 10 mg/kg. After they were harvested, the tumors from that experiment were analyzed for the expression of Wnt target genes at both the RNA and protein levels, using microarray and IHC, respectively.
# In preparation for Smooth Muscle Actin alpha (SMAa) immunofluorescence, tumor tissue was frozen using OCT. 4 micron sections were obtained and stored frozen at −80° C. For SMAa staining, tissue was fixed using chilled acetone at −20° C. for 15 minutes and then allowed to dry and come to room temperature and then marked using a hydrophobic PAP pen. Slides were then washed using phosphate buffered saline (PBS). Tissue was blocked using normal horse serum R.T.U. (Vector Labs) for 2 hours at room temperature. Primary antibody staining was performed with 1:10,000 dilution of FITC-conjugated Smooth muscle actin alpha antibody (cline 1A4, #F3777, SIGMA) for 1 hour. Sections were washed 3 times using PBS containing 0.1% triton X-100. Slides were then air-dried and then mounted using Hard set mounting medium containing DAPI (vectashied H-500).
# PN13 tumors = test: Alcian blue and ki67 staining of treated PN13 tumor sections; assay type: in vivo, NOD/SCID mice; conditions: vs control antibody
# Method: FIG. 43. Treatment with anti-FZD antibody 18R5 promotes differentiation of tumor cells into non-proliferative mucinous cells. NOD/SCID mice were injected with 50,000 OMP-PN13 pancreatic tumor cells and on day 23, mice with tumors of average volume of about 107 mm^3 were randomized, and treatment with control antibody or 18R5 was initiated four days later. After 20 days tumors were collected and sectioned. Tumor sections from 18R5 treated mice or control antibody treated mice were stained with alcian blue stain to reveal mucinous cells and by immunohistochemistry with antibody to ki67 to reveal proliferative cells. Exemplary mucinous cells and proliferative cells are highlighted by arrows.
# Increased mucinous cells were also noted in a second pancreatic tumor line, PN13, following treatment with 18R5 […] (FIG. 43). In this experiment mice bearing PN13 tumors were treated as described above (Example 7). Tumors sections were stained with alcian blue to reveal mucinous cells and also stained by immunohistochemistry with an antibody to ki67 to reveal cells undergoing proliferation. […] Additionally, the frequency of ki67 positive cells was reduced by 18R5 treatment. […] This provides evidence that 18R5 treatment is promoting the differentiation of tumor cells into non-proliferative progeny.
# [2] = system: OMP-LU33 human lung tumors; test: OMP-LU33 lung tumor xenograft growth; assay type: in vivo, NOD-SCID mice; conditions: antibodies 10 mg/kg IP twice per week
# Method: 10,000 OMP-LU33 human lung tumor cells were injected subcutaneously in NOD-SCID mice. Tumors were allowed to grow for 30 days until they reached an average volume of 124 mm^3. The animals were randomized into 4 groups (n=10 per group) and treated with either control antibody (squares), Avastin® (triangles pointing down), anti-FZD 18R5 (triangles pointing up), or the combination of 18R5 plus Avastin® (circles).
# Wnt target genes = test: qPCR of Wnt target genes in duodenum of OMP-PN13-bearing mice; assay type: in vivo, NOD/SCID mice
# Method: Frozen OMP-PN13 tumor cells that have been passaged twice in mice were obtained from Oncomed's tumor bank. They were thawed and injected subcutaneously into the left flank of NOD/SCID mice immediately following thawing. ˜ 25,000 viable cells were injected per animal. The mice were monitored weekly for tumor growth. After their onset, the size of the tumors was measured once weekly by caliper. 200-300 mm^3 tumor-bearing mice were dispatched in treatment groups that each contained 5 animals. […] Ab treatment was initiated the day after randomization. LZ1 was used as the negative control Ab. 3 doses of 10 mg/kg of Ab were administered via intra-peritoneal injection over a 12-day period. Mice were euthanized 24 hours after the last injection. Tumor, duodenum and liver were harvested.
# Total RNAs were also extracted from tumor, duodenum and liver for Wnt target gene expression analyses using qPCR.
# Tissues were immediately transferred into RNAlater (QIAGEN) at the time of harvest. RNA was extracted using the QIAGEN RNeasy for Fibrous Tissue mini kit according to the manufacturer instructions. […] All 5 tumors of each treatment group were analyzed. […] ABI SDS 2.2.1 software was used to analyze the data and calculate DeltaCt values that were converted into relative quantities. […] Fold inhibition factors were then calculated relative to control antibody (LZ1).
molecule,measurement,setting,value
B1,Smooth Muscle Actin alpha (SMAa) amount,[1],Reduced amounts of SMAa
same,alcian blue positive mucinous cells,PN13 tumors,greatly increased numbers of alcian blue positive mucinous cells
same,frequency of ki67 positive cells,PN13 tumors,reduced
same,xenograft tumor growth,[2],inhibits OMP-LU33 xenograft tumor growth
same,duodenum Lgr5,"Wnt target genes; fold relative to control antibody LZ1, 3 doses of 10 mg/kg over 12 days",−2.6x
same,Wnt target gene in the duodenum,Wnt target genes; relative to LZ1,unaffected
